Blank lines part the entries; values can stand above or below the binder they belong to.
Legend:
Experiment in all cases: holdup assay
Design in all cases: key: below the threshold = too weak to quantify, mostly under pKd 3.1 to 4
[1] = molecular target: MAST1, Q9Y2H9
[2] = molecular target: MAGI1_2, Q96QZ7
[3] = molecular target: T1, SYNJ2BP, P57105
T1 sequence (P57105 8-110, limits assumed, looked up): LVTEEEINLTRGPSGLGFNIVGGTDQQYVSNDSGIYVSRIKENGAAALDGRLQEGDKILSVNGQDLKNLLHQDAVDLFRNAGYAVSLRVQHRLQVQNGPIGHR

[4] = molecular target: DLG4_2, P78352
[5] = molecular target: GORASP1, Q9BQQ3
[6] = molecular target: T2, DFNB31_3, Q9P202
T2 sequence (Q9P202 811-907, limits assumed, looked up): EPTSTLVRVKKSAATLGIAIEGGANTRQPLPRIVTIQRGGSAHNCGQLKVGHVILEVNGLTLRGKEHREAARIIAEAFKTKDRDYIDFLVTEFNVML

[7] = molecular target: PDZRN4_1, Q6ZMN7
[8] = molecular target: GORASP2, Q9H8Y8
[9] = molecular target: T3, MPP2, Q14168
T3 sequence (Q14168 180-250, limits assumed, looked up): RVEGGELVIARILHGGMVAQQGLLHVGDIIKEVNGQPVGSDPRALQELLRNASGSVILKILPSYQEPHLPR

[10] = molecular target: MAGI2_3, Q86UL8
[11] = molecular target: DLG4_1, P78352
[12] = molecular target: T4, LNX2_2, Q8N448
T4 sequence (Q8N448 334-432, limits assumed, looked up): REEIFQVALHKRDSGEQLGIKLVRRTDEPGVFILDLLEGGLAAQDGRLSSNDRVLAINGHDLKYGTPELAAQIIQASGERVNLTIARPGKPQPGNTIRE

[13] = molecular target: TJP1_2, Q07157
[14] = molecular target: T5, RHPN1, Q8TCX5
T5 sequence (Q8TCX5 508-602, limits assumed, looked up): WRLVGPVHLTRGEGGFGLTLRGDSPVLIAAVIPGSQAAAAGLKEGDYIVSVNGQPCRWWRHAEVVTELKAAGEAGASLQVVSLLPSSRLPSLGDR

[15] = molecular target: SCRIB_1, Q14160
[16] = molecular target: FRMPD3, Q5JV73
[17] = molecular target: T6, NHERF3_4, Q5T2W1
T6 sequence (Q5T2W1 373-468, limits assumed, looked up): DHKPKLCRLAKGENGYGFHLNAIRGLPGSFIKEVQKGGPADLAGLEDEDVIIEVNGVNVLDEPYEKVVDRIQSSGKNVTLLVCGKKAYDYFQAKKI

[18] = molecular target: T7, SHANK1, Q9Y566
T7 sequence (Q9Y566 658-767, limits assumed, looked up): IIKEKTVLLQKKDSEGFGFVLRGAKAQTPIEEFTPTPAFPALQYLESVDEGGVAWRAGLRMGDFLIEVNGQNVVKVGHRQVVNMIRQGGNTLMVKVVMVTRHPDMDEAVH

[19] = molecular target: NHERF2_2, Q15599
[20] = molecular target: T8, SNTG1, Q9NSN8
T8 sequence (Q9NSN8 52-150, limits assumed, looked up): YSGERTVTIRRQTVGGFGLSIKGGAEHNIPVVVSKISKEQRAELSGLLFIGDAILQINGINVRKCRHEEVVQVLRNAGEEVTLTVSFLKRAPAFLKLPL

[21] = molecular target: T9, LIN7C, Q9NUP9
T9 sequence (Q9NUP9 88-185, limits assumed, looked up): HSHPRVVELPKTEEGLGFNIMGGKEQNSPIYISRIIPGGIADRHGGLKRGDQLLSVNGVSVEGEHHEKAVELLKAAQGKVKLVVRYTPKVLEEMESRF

[22] = molecular target: LNX1_1, Q8TBB1
[23] = molecular target: Inadl_8, Q8NI35
[24] = molecular target: NHERF4_2, Q86UT5
[25] = molecular target: PTPN3, P26045
[26] = molecular target: T10, DLG3_2, Q92796
T10 sequence (Q92796 221-321, limits assumed, looked up): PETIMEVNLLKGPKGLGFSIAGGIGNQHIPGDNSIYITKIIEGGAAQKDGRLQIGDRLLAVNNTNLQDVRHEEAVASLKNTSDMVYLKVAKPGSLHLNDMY

[27] = molecular target: T11, NHERF3_1, Q5T2W1
T11 sequence (Q5T2W1 4-100, limits assumed, looked up): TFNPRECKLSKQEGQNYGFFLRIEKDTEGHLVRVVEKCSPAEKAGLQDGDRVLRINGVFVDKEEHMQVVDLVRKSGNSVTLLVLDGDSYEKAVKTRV

[28] = plain residues with an end cap or a label only (N-terminal biotin on a linker: ttds)
[29] = plain residues with an end cap or a label only (N-terminal biotin on a linker: ado-ado)

Chain of SCRIB_1, Q14160 (Q14160 718-814): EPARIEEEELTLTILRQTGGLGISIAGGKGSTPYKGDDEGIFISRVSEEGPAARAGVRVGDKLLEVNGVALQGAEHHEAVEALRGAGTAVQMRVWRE
Chain of NHERF2_2, Q15599 (Q15599 142-238): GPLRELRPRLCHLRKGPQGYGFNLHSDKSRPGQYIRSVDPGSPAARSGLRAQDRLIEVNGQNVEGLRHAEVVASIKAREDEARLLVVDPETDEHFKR
Chain of MAGI1_2, Q96QZ7 (Q96QZ7 456-580): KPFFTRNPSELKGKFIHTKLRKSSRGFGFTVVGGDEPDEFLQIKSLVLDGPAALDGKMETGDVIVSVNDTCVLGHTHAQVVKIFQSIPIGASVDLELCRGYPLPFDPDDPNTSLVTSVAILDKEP
Chain of GORASP1, Q9BQQ3 (Q9BQQ3 1-208): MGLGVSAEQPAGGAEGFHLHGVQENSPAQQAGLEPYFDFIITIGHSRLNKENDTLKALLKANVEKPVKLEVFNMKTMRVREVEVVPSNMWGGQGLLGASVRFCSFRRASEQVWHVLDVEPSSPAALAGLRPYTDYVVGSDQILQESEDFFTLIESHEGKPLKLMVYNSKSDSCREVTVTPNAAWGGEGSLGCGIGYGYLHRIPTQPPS
Chain of MAST1, Q9Y2H9 (Q9Y2H9 962-1065): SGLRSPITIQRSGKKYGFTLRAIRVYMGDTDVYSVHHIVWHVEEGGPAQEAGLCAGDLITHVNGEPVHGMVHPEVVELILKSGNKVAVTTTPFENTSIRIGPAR
Chain of DLG4_2, P78352 (P78352 155-259): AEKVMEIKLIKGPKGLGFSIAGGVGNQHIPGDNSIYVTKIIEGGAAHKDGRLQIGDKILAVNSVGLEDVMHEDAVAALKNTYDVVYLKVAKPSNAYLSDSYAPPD
Chain of PDZRN4_1, Q6ZMN7 (Q6ZMN7 213-318): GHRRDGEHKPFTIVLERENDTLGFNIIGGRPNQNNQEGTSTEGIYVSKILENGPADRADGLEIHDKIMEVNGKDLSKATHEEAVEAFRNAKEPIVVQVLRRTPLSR
Chain of TJP1_2, Q07157 (Q07157 181-274): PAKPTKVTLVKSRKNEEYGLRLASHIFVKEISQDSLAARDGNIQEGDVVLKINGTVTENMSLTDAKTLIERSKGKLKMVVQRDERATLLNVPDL
Chain of NHERF4_2, Q86UT5 (Q86UT5 220-308): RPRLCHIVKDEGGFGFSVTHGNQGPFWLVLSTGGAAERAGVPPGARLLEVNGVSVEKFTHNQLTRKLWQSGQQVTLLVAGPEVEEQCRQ
Chain of LNX1_1, Q8TBB1 (Q8TBB1 261-371): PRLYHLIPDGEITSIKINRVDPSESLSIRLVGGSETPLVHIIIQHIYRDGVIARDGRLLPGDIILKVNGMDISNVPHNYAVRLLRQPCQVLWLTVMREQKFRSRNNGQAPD
Chain of FRMPD3, Q5JV73 (Q5JV73 12-100): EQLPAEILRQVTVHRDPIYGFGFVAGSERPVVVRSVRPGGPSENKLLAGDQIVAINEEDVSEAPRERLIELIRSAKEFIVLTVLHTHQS
Chain of PTPN3, P26045 (P26045 505-587): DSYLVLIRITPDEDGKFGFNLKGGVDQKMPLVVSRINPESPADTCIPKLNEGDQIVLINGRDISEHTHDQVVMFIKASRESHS
Chain of Inadl_8, Q8NI35 (Q8NI35 1425-1530): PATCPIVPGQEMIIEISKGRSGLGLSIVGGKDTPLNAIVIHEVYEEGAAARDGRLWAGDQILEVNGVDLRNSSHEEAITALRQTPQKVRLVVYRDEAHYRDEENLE
Chain of MAGI2_3, Q86UL8 (Q86UL8 600-682): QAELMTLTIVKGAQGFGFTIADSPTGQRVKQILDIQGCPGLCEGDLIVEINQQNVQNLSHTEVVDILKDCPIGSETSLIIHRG
Chain of DLG4_1, P78352 (P78352 62-152): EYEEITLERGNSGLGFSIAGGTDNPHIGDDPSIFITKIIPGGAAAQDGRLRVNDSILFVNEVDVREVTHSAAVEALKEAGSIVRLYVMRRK

pKd [1, 28]: 4.56 | pKd [2, 28]: below the threshold | pKd [3, 28]: 4.95 | pKd [4, 28]: 4.18 | pKd [5, 28]: below the threshold | pKd [6, 28]: below the threshold | pKd [7, 28]: 4.84 | pKd [8, 28]: below the threshold | pKd [9, 28]: below the threshold | pKd [10, 28]: below the threshold | pKd [11, 28]: 3.5 | pKd [12, 28]: below the threshold | pKd [13, 28]: below the threshold | pKd [14, 28]: 4.94 | pKd [15, 28]: 5.56 | pKd [16, 28]: below the threshold | pKd [17, 28]: below the threshold | pKd [18, 28]: 4.42 | pKd [19, 28]: 4.48 | pKd [20, 28]: 5.31 | pKd [21, 28]: 3.68 | pKd [22, 28]: below the threshold | pKd [23, 28]: below the threshold | pKd [24, 28]: below the threshold | pKd [25, 28]: 4.92 | pKd [26, 28]: 3.93 | pKd [27, 28]: 4.52
B1: MAP4, P27816 (peptide)
chain: LDSQIQETSI

pKd [1, 28]: 4.51 | pKd [2, 28]: below the threshold | pKd [3, 28]: 4.65 | pKd [4, 28]: below the threshold | pKd [5, 28]: below the threshold | pKd [6, 28]: below the threshold | pKd [7, 28]: below the threshold | pKd [8, 28]: below the threshold | pKd [9, 28]: below the threshold | pKd [10, 28]: below the threshold | pKd [11, 28]: below the threshold | pKd [12, 28]: below the threshold | pKd [13, 28]: below the threshold | pKd [14, 28]: 3.82 | pKd [15, 28]: 5.04 | pKd [16, 28]: below the threshold | pKd [17, 28]: below the threshold | pKd [18, 28]: 3.57 | pKd [19, 28]: below the threshold | pKd [20, 28]: 3.73 | pKd [21, 28]: below the threshold | pKd [22, 28]: below the threshold | pKd [23, 28]: 4 | pKd [24, 28]: below the threshold | pKd [25, 28]: 3.78 | pKd [26, 28]: below the threshold | pKd [27, 28]: below the threshold
B2: CIT, O14578 (peptide)
chain: VNKVWDQSSV

pKd [1, 29]: 3.91 | pKd [2, 29]: below the threshold | pKd [3, 29]: below the threshold | pKd [4, 29]: 3.62 | pKd [5, 29]: below the threshold | pKd [6, 29]: below the threshold | pKd [7, 29]: 3.73 | pKd [8, 29]: below the threshold | pKd [9, 29]: below the threshold | pKd [10, 29]: below the threshold | pKd [11, 29]: 3.57 | pKd [12, 29]: below the threshold | pKd [13, 29]: below the threshold | pKd [14, 29]: 3.79 | pKd [15, 29]: 3.5 | pKd [16, 29]: below the threshold | pKd [17, 29]: below the threshold | pKd [18, 29]: below the threshold | pKd [19, 29]: 3.74 | pKd [20, 29]: 3.64 | pKd [21, 29]: below the threshold | pKd [22, 29]: 3.6 | pKd [23, 29]: below the threshold | pKd [24, 29]: below the threshold | pKd [25, 29]: below the threshold | pKd [26, 29]: below the threshold | pKd [27, 29]: 3.75
B3: RCN1, Q15293 (peptide)
chain: EDLTKNHDEL

From paper PMC9482650, “Quantitative fragmentomics allow affinity mapping of interactomes” (Nature Communications, 2022)
